IntAct's records for PubMed 25042851

Each substance was assayed against mlp3a_human MAP1LC3A (UniProt Q9H492).
“Toll-interacting protein (Homo sapiens) (from UniProt Q9H0E2) W133A;T134A;H135A;I136A;W151A;Y152A;S153A;L154A” was tested, and the “effect of a mutation on the interaction” value was “disrupting interaction strength”. In the case of “Toll-interacting protein (Homo sapiens) (from UniProt Q9H0E2) W133A;T134A;H135A;I136A”, the “effect of a mutation on the interaction” value is reported as “decreasing interaction strength”. For “Toll-interacting protein (Homo sapiens) (from UniProt Q9H0E2) W151A;Y152A;S153A;L154A”, the “effect of a mutation on the interaction” value was “decreasing interaction strength”.
